We go through 1 molecule from paper PMC9133112, “The structural basis of Cdc7-Dbf4 kinase dependent targeting and phosphorylation of the MCM2-7 double hexamer” (Nature Communications, 2022).

For experiment [1], the target named is T1, Mcm4 (Saccharomyces cerevisiae, UniProt P30665 1-933).
T1 construct: Mcm4, Saccharomyces cerevisiae, full length; Subunit of m2, written alone for the contacts seen in the cryo-EM structures
T1 sequence (looked up): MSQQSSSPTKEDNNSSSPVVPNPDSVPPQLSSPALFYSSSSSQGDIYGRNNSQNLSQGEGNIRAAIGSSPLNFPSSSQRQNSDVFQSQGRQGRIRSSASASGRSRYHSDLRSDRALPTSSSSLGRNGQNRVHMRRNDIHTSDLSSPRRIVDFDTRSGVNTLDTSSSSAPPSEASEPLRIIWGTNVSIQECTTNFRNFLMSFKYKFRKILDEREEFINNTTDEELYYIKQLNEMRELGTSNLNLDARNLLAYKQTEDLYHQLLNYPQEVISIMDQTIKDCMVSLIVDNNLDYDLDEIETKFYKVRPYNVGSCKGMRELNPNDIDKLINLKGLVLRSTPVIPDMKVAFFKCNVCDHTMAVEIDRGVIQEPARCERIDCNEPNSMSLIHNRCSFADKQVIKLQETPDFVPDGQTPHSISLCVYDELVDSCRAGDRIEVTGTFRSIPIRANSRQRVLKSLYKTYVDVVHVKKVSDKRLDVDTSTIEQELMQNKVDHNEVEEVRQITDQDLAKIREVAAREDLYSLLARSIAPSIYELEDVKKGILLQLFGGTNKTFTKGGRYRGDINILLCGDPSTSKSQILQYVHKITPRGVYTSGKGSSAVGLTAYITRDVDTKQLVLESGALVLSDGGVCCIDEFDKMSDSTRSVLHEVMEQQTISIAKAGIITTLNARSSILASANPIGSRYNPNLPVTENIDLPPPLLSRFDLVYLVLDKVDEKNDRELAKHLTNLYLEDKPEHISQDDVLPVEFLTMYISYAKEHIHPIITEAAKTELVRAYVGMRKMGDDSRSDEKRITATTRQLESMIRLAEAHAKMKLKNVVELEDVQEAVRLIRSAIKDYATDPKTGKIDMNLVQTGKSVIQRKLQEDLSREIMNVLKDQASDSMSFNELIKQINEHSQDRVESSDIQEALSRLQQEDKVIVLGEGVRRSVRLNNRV
In words: cryo-EM structure; MD-(ATPγS): 250 nM DH released from beads by AluI + 750 nM DDK, 10 min 24 °C, buffer C with 3 mM ATPγS; GraFix glycerol gradient with glutaraldehyde; states I-III. To be noted: both partners purified.

Experiment [2] has as its target T2, Dbf4 (Saccharomyces cerevisiae, UniProt P32325 1-704).
T2 construct: Dbf4, Saccharomyces cerevisiae, full length (41% resolved in the map); Subunit of m1, written alone for the contacts seen in the cryo-EM structures; also called dumbbell former 4; source: budding yeast cells, purified as subunit of DDK
T2 sequence (looked up): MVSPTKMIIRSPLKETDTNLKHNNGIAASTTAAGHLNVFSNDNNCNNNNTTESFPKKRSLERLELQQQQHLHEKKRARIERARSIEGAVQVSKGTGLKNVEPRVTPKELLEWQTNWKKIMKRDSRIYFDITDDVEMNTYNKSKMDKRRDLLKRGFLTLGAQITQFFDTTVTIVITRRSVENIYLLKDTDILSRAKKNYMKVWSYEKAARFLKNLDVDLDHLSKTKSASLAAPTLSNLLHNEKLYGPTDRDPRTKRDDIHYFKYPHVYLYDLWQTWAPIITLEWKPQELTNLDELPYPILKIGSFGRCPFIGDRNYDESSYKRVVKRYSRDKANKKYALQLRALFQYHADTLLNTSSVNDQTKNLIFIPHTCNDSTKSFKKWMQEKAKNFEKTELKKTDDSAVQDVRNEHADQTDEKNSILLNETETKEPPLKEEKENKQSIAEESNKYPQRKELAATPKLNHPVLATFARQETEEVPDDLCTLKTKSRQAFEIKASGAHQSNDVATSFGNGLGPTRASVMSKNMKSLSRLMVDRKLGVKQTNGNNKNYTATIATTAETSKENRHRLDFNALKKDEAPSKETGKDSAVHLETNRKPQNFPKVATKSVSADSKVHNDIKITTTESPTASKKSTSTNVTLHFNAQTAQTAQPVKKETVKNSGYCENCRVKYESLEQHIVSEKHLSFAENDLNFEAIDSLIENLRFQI
The experiment is described as above. As to conditions: both partners purified.

B1: Cdc7 (enzyme, Saccharomyces cerevisiae, UniProt P06243 1-507, looked up)
chain: MTSKTKNIDDIPPEIKEEMIQLYHDLPGIENEYKLIDKIGEGTFSSVYKAKDITGKITKKFASHFWNYGSNYVALKKIYVTSSPQRIYNELNLLYIMTGSSRVAPLCDAKRVRDQVIAVLPYYPHEEFRTFYRDLPIKGIKKYIWELLRALKFVHSKGIIHRDIKPTNFLFNLELGRGVLVDFGLAEAQMDYKSMISSQNDYDNYANTNHDGGYSMRNHEQFCPCIMRNQYSPNSHNQTPPMVTIQNGKVVHLNNVNGVDLTKGYPKNETRRIKRANRAGTRGFRAPEVLMKCGAQSTKIDIWSVGVILLSLLGRRFPMFQSLDDADSLLELCTIFGWKELRKCAALHGLGFEASGLIWDKPNGYSNGLKEFVYDLLNKECTIGTFPEYSVAFETFGFLQQELHDRMSIEPQLPDPKTNMDAVDAYELKKYQEEIWSDHYWCFQVLEQCFEMDPQKRSSAEDLLKTPFFNELNENTYLLDGESTDEDDVVSSSEADLLDKDVLLISE
notes: Cdc7 serine/threonine kinase, Saccharomyces cerevisiae, full length (87% resolved in the map); Subunit of m1, written alone for the contacts seen in the cryo-EM structures; also called Cdc7 kinase; Cdc7 serine/threonine kinase; source: budding yeast cells, purified as subunit of DDK
For the molecule B1, the binding result in experiment [1] and in experiment [2] was “binds” each time.
